Experimental data: paper PMC11641934

Molecular target: heat shock protein 70 (HSP70) (human (endogenous in PDAC cell lines and CAFs)) (UniProt P0DMV8)
UniProt P0DMV8, sequence (P0DMV8 whole entry): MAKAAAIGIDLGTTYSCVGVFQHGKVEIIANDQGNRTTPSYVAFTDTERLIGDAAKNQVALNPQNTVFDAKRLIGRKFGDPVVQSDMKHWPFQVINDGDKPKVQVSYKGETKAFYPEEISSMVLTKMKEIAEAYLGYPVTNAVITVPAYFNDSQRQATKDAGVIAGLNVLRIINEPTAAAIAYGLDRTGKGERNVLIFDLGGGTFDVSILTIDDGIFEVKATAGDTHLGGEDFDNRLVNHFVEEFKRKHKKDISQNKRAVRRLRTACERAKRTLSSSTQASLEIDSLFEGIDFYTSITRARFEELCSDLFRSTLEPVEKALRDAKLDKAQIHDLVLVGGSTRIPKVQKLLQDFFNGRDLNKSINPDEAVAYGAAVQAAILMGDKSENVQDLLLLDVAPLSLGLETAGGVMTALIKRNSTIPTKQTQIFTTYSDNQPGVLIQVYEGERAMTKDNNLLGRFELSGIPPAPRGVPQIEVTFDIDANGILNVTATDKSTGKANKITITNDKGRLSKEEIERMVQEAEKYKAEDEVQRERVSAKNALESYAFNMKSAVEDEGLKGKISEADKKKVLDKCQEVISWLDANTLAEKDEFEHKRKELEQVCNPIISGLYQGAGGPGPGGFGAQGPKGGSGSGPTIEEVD

Question: What does the source list for “His tagged-recombinant Pn-ASV with exon 21 (Pn 2-1) (from UniProt Q15063-5 22-809) (natural protein)”?
Answer: % rescue by recombinant Pn 2-1 in GEM-treated AsPC1 cells, CTRL siRNA group (counteracted by HSPA1A knockdown): 11.2%; % rescue by recombinant Pn 2-1 in GEM-treated BxPC3 cells, CTRL siRNA group (counteracted by HSPA1A knockdown): 5.4%; % rescue by recombinant Pn 2-1 in GEM-treated Panc1 cells, CTRL siRNA group (counteracted by HSPA1A knockdown): 86.3%
